# T1: human TREM2 expressed on cells (human, UniProt Q9NZC2 19-230)
# T1 construct: BW5147.G.1.4 cells stably expressing human TREM2 together with Dap12, or endogenous TREM2 of primary human myeloid cells; also called huT2 BW; hTREM2 expressing cell line
# T1 sequence: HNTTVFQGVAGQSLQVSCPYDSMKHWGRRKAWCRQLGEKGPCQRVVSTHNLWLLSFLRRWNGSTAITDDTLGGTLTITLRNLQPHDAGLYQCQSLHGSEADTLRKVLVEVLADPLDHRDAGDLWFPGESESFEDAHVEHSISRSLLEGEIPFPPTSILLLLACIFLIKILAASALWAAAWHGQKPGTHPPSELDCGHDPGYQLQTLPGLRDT
# T2: mouse TREM2 (mouse, UniProt Q99NH8 19-227)
# T2 construct: Endogenous TREM2 of wild-type mice (peritoneal macrophages); also called murine TREM2
# T2 sequence: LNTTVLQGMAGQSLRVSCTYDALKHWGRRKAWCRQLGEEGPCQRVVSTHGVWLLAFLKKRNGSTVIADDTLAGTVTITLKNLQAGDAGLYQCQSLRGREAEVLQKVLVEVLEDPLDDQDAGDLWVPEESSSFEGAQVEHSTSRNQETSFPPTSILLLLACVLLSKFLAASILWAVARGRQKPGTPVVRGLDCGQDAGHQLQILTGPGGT
# B1: AL2p-58 huIgG1 (antibody)
# heavy: not shown
# light: DVVMTQSPDSLAVSLGERATINCRSSQSLVHSNRYTYLHWYQQKPGQSPKLLIYKVSNRFSGVPDRFSGSGSGTDFTLKISRVEAEDVGVYYCSQSTRVPYTFGQGTKLEIKRTVAAPSVFIFPPSDEQLKSGTASVVCLLNNFYPREAKVQWKVDNALQSGNSQESVTEQDSKDSTYSLSSTLTLSKADYEKHKVYACEVTHQGLSSPVTKSFNRGEC
# notes: also called AL2p-58 huIgG1 WT
# How the values were obtained:
# [1] = target: T1, human TREM2 expressed on cells; experiment: FACS, hTREM2 BW cells
# [2] = target: human TREM2/DAP12 fusion protein (human, UniProt O43914 41-113, limits assumed); experiment: cell-based or functional assay
# mouse TREM2 = target: T2, mouse TREM2; experiment: no effect on Dap12 phosphorylation in WT mice
# Method: 8 week old C579116 (WT) Bac-TG-hTREM2 mice were injected i.p. with 3 ml of 3% thioglycollate. […] Immunoblots were probed with antibodies directed against human TREM2 (R&D #AF1828).
# To test if AL2p variant antibodies induce TREM2 signal activation in vivo, WT or human TREM2 expressing Bac-Tg mice were treated with thioglycollate to recruit macrophages to the peritoneum. After three days, mice were injected with anti-TREM2 or control huIgG1 antibodies and subsequently, peritoneal macrophages were harvested, lysed and phosphorylation of Dap12 associated with TREM2 was probed as a measure of TREM2 signaling activation.
# [3] = target: T1, human TREM2 expressed on cells; experiment: cell-based or functional assay
binder,measurement,setting,value
B1,Bmax (MFI),[1],196000 MFI
same,Kd,[1],0.63 nM
same,"Plate bound IgG, fold over unstimulated control (25 nM IgG)",[2],9.88 fold
same,"Soluble IgG, EC50",[2],4.83 nM
same,"Soluble IgG, fold over control IgG (17 nM IgG)",[2],9.97 fold
same,binding result,mouse TREM2,no binding
same,"EC50 viability, dendritic cells D558",[3],0.288 nM
same,"EC50 viability, dendritic cells D559",[3],0.341 nM
same,"EC50 viability, dendritic cells D560",[3],0.271 nM
same,"EC50 viability, macrophages D558",[3],0.005 nM
same,"EC50 viability, macrophages D559",[3],0.359 nM
same,"EC50 viability, macrophages D560",[3],0.469 nM
